Measurements: paper PMC2650403
One block for each molecule: values may come before it.

Experiments:
[1] = molecular target: Werner syndrome protein (WRN), recombinant His6-tagged, wild type (human) (UniProt Q14191)
[2] = molecular target: WRN-E84A, full-length WRN with the N-terminal exonuclease inactivating mutation E84 to alanine (human) (UniProt Q14191)

radiometric DNA helicase assay, percent unwinding of a telomeric-repeat substrate lacking the 3′-ss tail by WRN (3 nM) with RPA 6 to 24 nM [1]: 22%
Molecule: Recombinant human replication protein A (RPA) (complex)

radiometric DNA helicase assay, increase in unwound product of a 30-nt gap telomeric substrate pre-bound with POT1v1 (6 to 48 nM), WRN-E84A 6 nM; value at the 1:8 ratio of WRN-E84A to POT1v1 [2]: 10%
B1: Protector of telomeres 1, variant 1 (POT1v1) (natural protein)
chain: MSLVPATNYIYTPLNQLKGGTIVNVYGVVKFFKPPYLSKGTDYCSVVTIVDQTNVKLTCLLFSGNYEALPIIYKNGDIVRFHRLKIQVYKKETQGITSSGFASLTFEGTLGAPIIPRTSSKYFNFTTEDHKMVEALRVWASTHMSPSWTLLKLCDVQPMQYFDLTCQLLGKAEVDGASFLLKVWDGTRTPFPSWRVLIQDLVLEGDLSHIHRLQNLTIDILVYDNHVHVARSLKVGSFLRIYSLHTKLQSMNSENQTMLSLEFHLHGGTSYGRGIRVLPESNSDVDQLKKDLESANLTANQHSDVICQSEPDDSFPSSGSVSLYEVERCQQLSATILTDHQYLERTPLCAILKQKAPQQYRIRAKLRSYKPRRLFQSVKLHCPKCHLLQEVPHEGDLDIIFQDGATKTPDVKLQNTSLYDSKIWTTKNQKGRKVAVHFVKNNGILPLSNECLLLIEGGTLSEICKLSNKFNSVIPVRSGHEDLELLDLSAPFLIQGTIHHYGCKQCSSLRSIQNLNSLVDKTSWIPSSVAEALGIVPLQYVFVMTFTLDDGTGVLEAYLMDSDKFFQIPASEVLMDDDLQKSVDMIMDMFCPPGIKIDAYPWLECFIKSYNVTNGTDNQICYQIFDTTVAEDVI
